Experimental data from patent publication US6835382B2, “Ii peptide therapeutics to enhance antigen presentation” (University of Massachusetts, priority 1996, dated 2004).
Non-standard residues stand in square brackets, D forms with d. hArg = N=C(N)NCCCC[C@H](N)C(=O)O; Cit = NC(=O)NCCC[C@H](N)C(=O)O; Orn = NCCC[C@H](N)C(=O)O

Target: T1, murine E^d MHC class II allele (Mus musculus, UniProt P01904+P01915)
T1 sequence (P01904 26-255): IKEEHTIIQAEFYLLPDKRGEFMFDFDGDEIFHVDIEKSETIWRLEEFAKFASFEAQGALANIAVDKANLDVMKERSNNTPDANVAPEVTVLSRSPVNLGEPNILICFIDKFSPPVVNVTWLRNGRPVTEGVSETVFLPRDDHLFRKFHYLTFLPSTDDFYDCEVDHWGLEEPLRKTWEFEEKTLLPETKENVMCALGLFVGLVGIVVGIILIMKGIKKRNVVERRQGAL
T1 sequence (P01915 27-264 limits assumed): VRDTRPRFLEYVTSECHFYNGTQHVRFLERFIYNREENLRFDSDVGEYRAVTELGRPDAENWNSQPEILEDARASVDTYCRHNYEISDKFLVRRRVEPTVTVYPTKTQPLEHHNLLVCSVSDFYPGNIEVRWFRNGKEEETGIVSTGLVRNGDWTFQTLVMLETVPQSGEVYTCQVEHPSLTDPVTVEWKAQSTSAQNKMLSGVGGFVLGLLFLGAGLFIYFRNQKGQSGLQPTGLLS
Assay: processed antigen assay, E^d allele (APC pulsed with native HEL)
Type: cell-based
Design: The A20 and CH27 B cell lymphoma lines express H-2^d and H-2^k alleles, respectively; endogenous in cells; host or cells: A20 B cell lymphoma (mitomycin C-treated or paraformaldehyde-fixed)
Conditions: AE peptide 64 μM; for T cell response relative to baseline (None = 1.00), E^d: Table 31; for T cell response relative to baseline (None = 1.0), 5 μM HEL E^d, first value / T cell response relative to baseline (None = 1.0), 5 μM HEL E^d, second value / T cell response relative to baseline (None = 1.0), 10 μM HEL E^d, first value / T cell response relative to baseline (None = 1.0), 10 μM HEL E^d, second value / T cell response relative to baseline (None = 1.0), 20 μM HEL E^d, first value / T cell response relative to baseline (None = 1.0), 20 μM HEL E^d, second value: Table 29; for T cell response relative to baseline (None = 1.0), 5 μM HEL E^d, first value / T cell response relative to baseline (None = 1.0), 5 μM HEL E^d, second value: native HEL prepulse 5 μM; for T cell response relative to baseline (None = 1.0), 5 μM HEL E^d, first value / T cell response relative to baseline (None = 1.0), 10 μM HEL E^d, first value / T cell response relative to baseline (None = 1.0), 20 μM HEL E^d, first value: supernatant dilution 1:4 (first value); for T cell response relative to baseline (None = 1.0), 5 μM HEL E^d, second value / T cell response relative to baseline (None = 1.0), 10 μM HEL E^d, second value / T cell response relative to baseline (None = 1.0), 20 μM HEL E^d, second value: supernatant dilution 1:8 (second value)
Protocol: In a third type of assay, the “processed antigen assay”, certain of the AE101 series of peptides inhibit stimulation of specific T cell hybridomas by antigenic peptides which are derived from the endogenous processing of a native protein antigen. This assay, which is related to the peptide prepulse assay, is performed by incubating APC with native protein antigen for 8 h, after which the pulsed APC are washed and treated with mitomycin C. Those pulsed APC are then combined with AE101 series peptides and T cell hybridomas and are incubated for 24 h. After that incubation, an aliquot of the culture supernatant is transferred to a second culture to measure T cell stimulation, as reflected in the effect of released interleukins on the growth of an interleukin-dependent, indicator cell line. During the 8 h incubation with native protein antigen, the protein antigen is taken into the APC. The native protein enters the processing pathway within the APC, where it is enzymatically cleaved to peptide fragments. Those peptide fragments with high affinity for the particular MHC class II molecules produced by the APC form antigenic peptide/MHC class II complexes which are transported to the cell surface. At the cell surface, the MHC class II molecules are contacted by the AE101 peptides, which cause the release of the antigenic peptide by the same mechanism proposed for the “peptide prepulse” assay above.
The “processed antigen assay” was carried out under essentially the same conditions as the “peptide prepulse assay”, with the following modifications. Untreated APC were incubated at 1×10^6/mL in 24-well plates (1 mL/well) with native protein antigen for 8 h. Following that incubation, the pulsed APC were washed, treated with mitomycin C, and washed again. AE101 series peptide was added at 64 μM, 16 μM, 4 μM, and 1 μM concentrations for 24 h in the presence of the T cell hybridoma specific for the antigenic peptide. Interleukin release from these cultures was measured by proliferation of HT-2 cells to interleukins in supernatants transferred from the primary culture. The baseline T cell response was measured by culturing T hybridoma cells with the native antigen-prepulsed APC in the absence of AE101 series peptides.
The “processed antigen assay” was carried out under essentially the same conditions as the “peptide prepulse” assay, with the following modifications. Untreated APC were incubated at 1×10^6/mL in 24-well plates (1 mL/well) with native protein antigen for 8 h. Following incubation, the pulsed APC were washed, treated with mitomycin C, and were washed again. The assay conditions were then as described for “peptide prepulse” above. The baseline T cell response was measured by culturing T hybridoma cells with the native antigen-prepulsed APC in the absence of AE101 peptides.
Table 2.9: Activities of substitution series at Leucine^80 in AE114 in a processed antigen assay. […] The results in this assay constitute, relatively, a mirror image of the result in the simultaneous assay (Example 1, Table 7) and parallel those of the antigenic peptide prepulse assay (Example 5, Table 24). Untreated APC were incubated with native HEL, instead of antigenic peptide, for 8 h. After incubation, the pulsed cells were washed and mitomycin C treated before being cocultured with AE-peptides and T cell hybridomas. Wells containing only T cells and native HEL-prepulsed APC were used to determine the Baseline response, or 1, in the absence of AE peptides. The concentration of AE peptide used was 64 μM for these assays. The supernatant dilutions used in the HT-2 cell assay were 1:4 (first value) and 1:8 (second value).

[1] = Table 30, native HEL prepulse 10 μM, supernatant dilution 1:8
[2] = native HEL prepulse 10 μM, supernatant dilution 1:4
[3] = Table 32, native HEL prepulse 20 μM, supernatant dilution 1:4

Substance: Ac-LRLKYPK-NH2 [AE301]
- T cell response relative to baseline (None = 1.0), E^d [1]: 0.19
- T cell response relative to baseline (None = 1.00), E^d [2]: 0.46
- T cell response relative to baseline (None = 1.0), E^d [3]: 0.54

Substance: Ac-LR N KLPK-NH2 (Ac-LRNKLPK-NH2) [AE202]
- T cell response relative to baseline (None = 1.00), E^d [2]: 0.76

Substance: Ac-LRMK D PK-NH2 (Ac-LRMKDPK-NH2) [AE230]
- T cell response relative to baseline (None = 1.0), 5 μM HEL E^d, first value: 0.81,
- T cell response relative to baseline (None = 1.0), 5 μM HEL E^d, second value: 0.62
- T cell response relative to baseline (None = 1.0), 10 μM HEL E^d, first value (native HEL prepulse 10 μM): 0.93,
- T cell response relative to baseline (None = 1.0), 10 μM HEL E^d, second value (native HEL prepulse 10 μM): 0.77
- T cell response relative to baseline (None = 1.0), 20 μM HEL E^d, first value (native HEL prepulse 20 μM): 1.1,
- T cell response relative to baseline (None = 1.0), 20 μM HEL E^d, second value (native HEL prepulse 20 μM): 0.98

Substance: Ac-LRMKLP[Cit]-NH2 [AE241]
- T cell response relative to baseline (None = 1.0), E^d [3]: 0.63

Substance: Ac-ARMKLPKSAK-NH2 [AE120]
- T cell response relative to baseline (None = 1.00), E^d [2]: 0.51

Substance: Ac-LRMK l PK-NH2 [AE164]
- T cell response relative to baseline (None = 1.0), E^d [1]: 0.64

Substance: Ac-ARNKNPK-NH2 [AE346]
- T cell response relative to baseline (None = 1.00), E^d [2]: 0.78

Substance: Ac-Y[hArg]MKLPKSAK-NH2 [AE132]
- T cell response relative to baseline (None = 1.0), E^d [3]: 0.48

Substance: Ac-LR (mL) KyPk-NH2 [AE306]
- T cell response relative to baseline (None = 1.0), E^d [1]: 0.68

Substance: Ac-LRMK Cit PK-NH2 (Ac-LRMK[Cit]PK-NH2; SMILES CSCC[C@H](NC(=O)[C@H](CCCNC(=N)N)NC(=O)[C@H](CC(C)C)NC(C)=O)C(=O)N[C@@H](CCCCN)C(=O)N[C@@H](CCCNC(N)=O)C(=O)N1CCC[C@H]1C(=O)N[C@@H](CCCCN)C(N)=O) [AE226]
- T cell response relative to baseline (None = 1.0), 5 μM HEL E^d, first value: 0.60,
- T cell response relative to baseline (None = 1.0), 5 μM HEL E^d, second value: 0.34
- T cell response relative to baseline (None = 1.0), 10 μM HEL E^d, first value (native HEL prepulse 10 μM): 0.68,
- T cell response relative to baseline (None = 1.0), 10 μM HEL E^d, second value (native HEL prepulse 10 μM): 0.58
- T cell response relative to baseline (None = 1.0), 20 μM HEL E^d, first value (native HEL prepulse 20 μM): 0.95,
- T cell response relative to baseline (None = 1.0), 20 μM HEL E^d, second value (native HEL prepulse 20 μM): 0.87

Substance: Ac-LRMK H PK-NH2 (Ac-LRMKHPK-NH2) [AE228]
- T cell response relative to baseline (None = 1.0), 5 μM HEL E^d, first value: 0.35,
- T cell response relative to baseline (None = 1.0), 5 μM HEL E^d, second value: 0.45
- T cell response relative to baseline (None = 1.0), 10 μM HEL E^d, first value (native HEL prepulse 10 μM): 0.41,
- T cell response relative to baseline (None = 1.0), 10 μM HEL E^d, second value (native HEL prepulse 10 μM): 0.41
- T cell response relative to baseline (None = 1.0), 20 μM HEL E^d, first value (native HEL prepulse 20 μM): 0.71,
- T cell response relative to baseline (None = 1.0), 20 μM HEL E^d, second value (native HEL prepulse 20 μM): 0.61

Substance: Ac-LR (mL) KYPk-NH2 [AE305]
- T cell response relative to baseline (None = 1.0), E^d [1]: 0.70

Substance: Ac-LRM M LPK-NH2 (Ac-LRMMLPK-NH2) [AE220]
- T cell response relative to baseline (None = 1.0), E^d [3]: 0.63

Substance: Ac-L[Cit]NKLPK-NH2 [AE343]
- T cell response relative to baseline (None = 1.00), E^d [2]: 0.69

Substance: Ac-ARMKNPK-NH2 [AE345]
- T cell response relative to baseline (None = 1.00), E^d [2]: 0.81

Substance: Ac-LRMK (mL) PK-NH2 [AE175]
- T cell response relative to baseline (None = 1.0), E^d [1]: 0.70

Substance: Ac-LRMK[Orn]PK-NH2 [AE225]
- T cell response relative to baseline (None = 1.0), 5 μM HEL E^d, first value: 0.26,
- T cell response relative to baseline (None = 1.0), 5 μM HEL E^d, second value: 0.38
- T cell response relative to baseline (None = 1.0), 10 μM HEL E^d, first value (native HEL prepulse 10 μM): 0.32,
- T cell response relative to baseline (None = 1.0), 10 μM HEL E^d, second value (native HEL prepulse 10 μM): 0.30
- T cell response relative to baseline (None = 1.0), 20 μM HEL E^d, first value (native HEL prepulse 20 μM): 0.59,
- T cell response relative to baseline (None = 1.0), 20 μM HEL E^d, second value (native HEL prepulse 20 μM): 0.48

Substance: Ac-LRLKWPK-NH2 [AE309]
- T cell response relative to baseline (None = 1.0), E^d [1]: 0.29
- T cell response relative to baseline (None = 1.00), E^d [2]: 0.44
- T cell response relative to baseline (None = 1.0), E^d [3]: 0.55
